Assay results reported in patent US20230201361.

Legend:
[1] = target: eighteen amino acid peptide containing the amino acid sequence PLGIA, covalently labeled with the same fluorophore near each end (HES structure)
[2] = target: control peptide, an HES-bearing peptide of the same length, with the same labeling, that does not contain the conformation-dependent cleavage site

B1: MMP-19 (protein)
chain: YLLLGRWRKKHLTFRILNLPSTLPPHTARAALRQAFQDWSNVAPLTFQEVQAGAADIRLSFHGRQSSYCSNTFDGPGRVLAHADIPELGSVHFDEDEFWTEGTYRGVNLRIIAAHEVGHALGLGHSRYSQALMAPVYEGYRPHFKLHPDDVAGIQALYGKKSPVIRDEEEEETELPTVPPVPTEPSPMPDPCSSELDAMMLGPRGKTYAFKGDYVWTVSDSGPGPLFRVSALWEGLPGNLDAAVYSPRTQWIHFFKGDKVWRYINFKMSPGFPKKLNRVEPNLDAALYWPLNQKVFLFKGSGYWQWDELARTDFSSYPKPIKGLFTGVPNQPSAAMSWQDGRVYFFKGKVYWRLNQQLRVEKGYPRNISHNWMHCRPRTIDTTPSGGNTTPSGTGITLDTTLSATETTFEY
In the case of B1, the fluorescence intensity [1] is reported as “Cleavage of the peptide gives rise to an increase in fluorescence intensity” and the fluorescence intensity [2] is reported as “The fluorescence of the latter does not increase upon addition of the MMP”.
